In PMC8298264, “Function of cofactor Akirin2 in the regulation of gene expression in model human neutrophil-like HL60 cells” (Bioscience Reports, 2021):

B1: sp¦O43633¦CHM2A_HUMAN (protein, UniProt O43633 1-222, looked up)
Charged multivesicular body …: MDLLFGRRKTPEELLRQNQRALNRAMRELDRERQKLETQEKKIIADIKKMAKQGQMDAVRIMAKDLVRTRRYVRKFVLMRANIQAVSLKIQTLKSNNSMAQAMKGVTKAMGTMNRQLKLPQIQKIMMEFERQAEIMDMKEEMMNDAIDDAMGDEEDEEESDAVVSQVLDELGLSLTDELSNLPSTGGSLSVAAGGKKAEAAASALADADADLEERLKNLRRD
B2: Eosinophil cationic protein (protein, UniProt P12724 28-160, looked up)
Eosinophil cationic protein: RPPQFTRAQWFAIQHISLNPPRCTIAMRAINNYRWRCKNQNTFLRTTFANVVNVCGNQSIRCPHNRTLNNCHRSRFRVPLLHCDLINPGAQNISNCTYADRPGRRFYVVACDNRDPRDSPRYPVVPVHLDTTI
B3: sp¦P08246¦ELNE_HUMAN (protein, UniProt P08246 30-267, looked up)
Neutrophil elastase: IVGGRRARPHAWPFMVSLQLRGGHFCGATLIAPNFVMSAAHCVANVNVRAVRVVLGAHNLSRREPTRQVFAVQRIFENGYDPVNLLNDIVILQLNGSATINANVQVAQLPAQGRRLGNGVQCLAMGWGLLGRNRGIASVLQELNVTVVTSLCRRSNVCTLVRGRQAGVCFGDSGSPLVCNGLIHGIASFVRGGCASGLYPDAFAPVAQFVNWIDSIIQRSEDNPCPHPRDPDPASRTH
B4: sp¦P24534¦EF1B_HUMAN (protein, UniProt P24534 2-225, looked up)
Elongation factor 1-beta: GFGDLKSPAGLQVLNDYLADKSYIEGYVPSQADVAVFEAVSSPPPADLCHALRWYNHIKSYEKEKASLPGVKKALGKYGPADVEDTTGSGATDSKDDDDIDLFGSDDEEESEEAKRLREERLAQYESKKAKKPALVAKSSILLDVKPWDDETDMAKLEECVRSIQADGLVWGSSKLVPVGYGIKKLQIQCVVEDDKVGTDMLEEQITAFEDYVQSMDVAAFNKI
B5: sp¦P13693¦TCTP_HUMAN (protein, UniProt P13693 1-172, looked up)
Translationally-controlled …: MIIYRDLISHDEMFSDIYKIREIADGLCLEVEGKMVSRTEGNIDDSLIGGNASAEGPEGEGTESTVITGVDIVMNHHLQETSFTKEAYKKYIKDYMKSIKGKLEEQRPERVKPFMTGAAEQIKHILANFKNYQFFIGENMNPDGMVALLDYREDGVTPYMIFFKDGLEMEKC
B6: sp¦P40121¦CAPG_HUMAN (protein, UniProt P40121 1-348, looked up)
Macrophage-capping protein: MYTAIPQSGSPFPGSVQDPGLHVWRVEKLKPVPVAQENQGVFFSGDSYLVLHNGPEEVSHLHLWIGQQSSRDEQGACAVLAVHLNTLLGERPVQHREVQGNESDLFMSYFPRGLKYQEGGVESAFHKTSTGAPAAIKKLYQVKGKKNIRATERALNWDSFNTGDCFILDLGQNIFAWCGGKSNILERNKARDLALAIRDSERQGKAQVEIVTDGEEPAEMIQVLGPKPALKEGNPEEDLTADKANAQAAALYKVSDATGQMNLTKVADSSPFALELLISDDCFVLDNGLCGKIYIWKGRKANEKERQAALQVAEGFISRMQYAPNTQVEILPQGHESPIFKQFFKDWK
B7: sp¦O75368¦SH3L1_HUMAN (protein, UniProt O75368 1-114, looked up)
Adapter SH3BGRL: MVIRVYIASSSGSTAIKKKQQDVLGFLEANKIGFEEKDIAANEENRKWMRENVPENSRPATGYPLPPQIFNESQYRGDYDAFFEARENNAVYAFLGLTAPPGSKEAEVQAKQQA
B8: sp¦Q9P013¦CWC15_HUMAN (protein, UniProt Q9P013 2-229, looked up)
Spliceosome-associated …: TTAARPTFEPARGGRGKGEGDLSQLSKQYSSRDLPSHTKIKYRQTTQDAPEEVRNRDFRRELEERERAAAREKNRDRPTREHTTSSSVSKKPRLDQIPAANLDADDPLTDEEDEDFEEESDDDDTAALLAELEKIKKERAEEQARKEQEQKAEEERIRMENILSGNPLLNLTGPSQPQANFKVKRRWDDDVVFKNCAKGVDDQKKDKRFVNDTLRSEFHKKFMEKYIK
B9: sp¦O95816¦BAG2_HUMAN (protein, UniProt O95816 2-211, looked up)
BAG family molecular …: AQAKINAKANEGRFCRSSSMADRSSRLLESLDQLELRVEALREAATAVEQEKEILLEMIHSIQNSQDMRQISDGEREELNLTANRLMGRTLTVEVSVETIRNPQQQESLKHATRIIDEVVNKFLDDLGNAKSHLMSLYSACSSEVPHGPVDQKFQSIVIGCALEDQKKIKRRLETLLRNIENSDKAIKLLEHSKGAGSKTLQQNAESRFN
B10: Resistin (protein, UniProt Q9HD89 19-108, looked up)
Resistin: KTLCSMEEAINERIQEVAGSLIFRAISSIGLECQSVTSRGDLATCPRGFAVTGCTCGSACGSWDVRAETTCHCQCAGMDWTGARCCRVQP
B11: sp¦P04080¦CYTB_HUMAN (protein, UniProt P04080 1-98, looked up)
Cystatin-B: MMCGAPSATQPATAETQHIADQVRSQLEEKENKKFPVFKAVSFKSQVVAGTNYFIKVHVGDEDFVHLRVFQSLPHENKPLTLSNYQTNKAKHDELTYF
B12: Serpin B10 (protein, UniProt P48595 1-397, looked up)
Serpin B10: MDSLATSINQFALELSKKLAESAQGKNIFFSSWSISTSLTIVYLGAKGTTAAQMAQVLQFNRDQGVKCDPESEKKRKMEFNLSNSEEIHSDFQTLISEILKPNDDYLLKTANAIYGEKTYAFHNKYLEDMKTYFGAEPQPVNFVEASDQIRKDINSWVERQTEGKIQNLLPDDSVDSTTRMILVNALYFKGIWEHQFLVQNTTEKPFRINETTSKPVQMMFMKKKLHIFHIEKPKAVGLQLYYKSRDLSLLILLPEDINGLEQLEKAITYEKLNEWTSADMMELYEVQLHLPKFKLEDSYDLKSTLSSMGMSDAFSQSKADFSGMSSARNLFLSNVFHKAFVEINEQGTEAAAGSGSEIDIRIRVPSIEFNANHPFLFFIRHNKTNTILFYGRLCSP
B13: sp¦P30740¦ILEU_HUMAN (protein, UniProt P30740 1-379, looked up)
Leukocyte elastase inhibitor: MEQLSSANTRFALDLFLALSENNPAGNIFISPFSISSAMAMVFLGTRGNTAAQLSKTFHFNTVEEVHSRFQSLNADINKRGASYILKLANRLYGEKTYNFLPEFLVSTQKTYGADLASVDFQHASEDARKTINQWVKGQTEGKIPELLASGMVDNMTKLVLVNAIYFKGNWKDKFMKEATTNAPFRLNKKDRKTVKMMYQKKKFAYGYIEDLKCRVLELPYQGEELSMVILLPDDIEDESTGLKKIEEQLTLEKLHEWTKPENLDFIEVNVSLPRFKLEESYTLNSDLARLGVQDLFNSSKADLSGMSGARDIFISKIVHKSFVEVNEEGTEAAAATAGIATFCMLMPEENFTADHPFLFFIRHNSSGSILFLGRFSSP
B14: sp¦P30533¦AMRP_HUMAN (protein, UniProt P30533 35-357, looked up)
Alpha-2-macroglobulin …: YSREKNQPKPSPKRESGEEFRMEKLNQLWEKAQRLHLPPVRLAELHADLKIQERDELAWKKLKLDGLDEDGEKEARLIRNLNVILAKYGLDGKKDARQVTSNSLSGTQEDGLDDPRLEKLWHKAKTSGKFSGEELDKLWREFLHHKEKVHEYNVLLETLSRTEEIHENVISPSDLSDIKGSVLHSRHTELKEKLRSINQGLDRLRRVSHQGYSTEAEFEEPRVIDLWDLAQSANLTDKELEAFREELKHFEAKIEKHNHYQKQLEIAHEKLRHAESVGDGERVSRSREKHALLEGRTKELGYTVKKHLQDLSGRISRARHNEL
B15: Annexin A5 (protein, UniProt P08758 2-320, looked up)
Annexin A5: AQVLRGTVTDFPGFDERADAETLRKAMKGLGTDEESILTLLTSRSNAQRQEISAAFKTLFGRDLLDDLKSELTGKFEKLIVALMKPSRLYDAYELKHALKGAGTNEKVLTEIIASRTPEELRAIKQVYEEEYGSSLEDDVVGDTSGYYQRMLVVLLQANRDPDAGIDEAQVEQDAQALFQAGELKWGTDEEKFITIFGTRSVSHLRKVFDKYMTISGFQIEETIDRETSGNLEQLLLAVVKSIRSIPAYLAETLYYAMKGAGTDDHTLIRVMVSRSEIDLFNIRKEFRKNFATSLYSMIKGDTSGDYKKALLLLCGEDD
B16: Hematopoietic lineage cell-specific protein (protein, UniProt P14317 1-486, looked up)
Hematopoietic lineage …: MWKSVVGHDVSVSVETQGDDWDTDPDFVNDISEKEQRWGAKTIEGSGRTEHINIHQLRNKVSEEHDVLRKKEMESGPKASHGYGGRFGVERDRMDKSAVGHEYVAEVEKHSSQTDAAKGFGGKYGVERDRADKSAVGFDYKGEVEKHTSQKDYSRGFGGRYGVEKDKWDKAALGYDYKGETEKHESQRDYAKGFGGQYGIQKDRVDKSAVGFNEMEAPTTAYKKTTPIEAASSGTRGLKAKFESMAEEKRKREEEEKAQQVARRQQERKAVTKRSPEAPQPVIAMEEPAVPAPLPKKISSEAWPPVGTPPSSESEPVRTSREHPVPLLPIRQTLPEDNEEPPALPPRTLEGLQVEEEPVYEAEPEPEPEPEPEPENDYEDVEEMDRHEQEDEPEGDYEEVLEPEDSSFSSALAGSSGCPAGAGAGAVALGISAVAVYDYQGEGSDELSFDPDDVITDIEMVDEGWWRGRCHGHFGLFPANYVKLLE

The molecules below were run on human HL60 cells (assay: SWATH-MS proteomics, differential protein representation, akirin2 KO vs WT HL60 cells). Settings: SWATH-MS, akirin2 KO vs WT HL60 cells; over-represented in KO.
Type: cell-based
In short: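 Read-out is label-free SWATH-MS protein area, globally normalized to total detected-protein area, with identifications held at 1% FDR against a library from information-dependent acquisition.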
For B1, the “Fold Change” value was 1.663 and the “Log (Fold Change)” value was 0.2209. With B2 the “Fold Change” value was 5.495 and the “Log (Fold Change)” value was 0.7399. With B3 the “Fold Change” value was 1.634 and the “Log (Fold Change)” value was 0.2132. For B4, the “Fold Change” value was 1.59 and the “Log (Fold Change)” value was 0.2013. In the case of B5, the “Fold Change” value is reported as 1.634 and the “Log (Fold Change)” value is reported as 0.2132. B6 was tested, and the “Fold Change” value was 1.617 and the “Log (Fold Change)” value was 0.2088. In the case of B7, the “Fold Change” value is reported as 1.672 and the “Log (Fold Change)” value is reported as 0.2233. In the case of B8, the “Fold Change” value is reported as 1.692 and the “Log (Fold Change)” value is reported as 0.2285. In the case of B9, the “Fold Change” value is reported as 1.58 and the “Log (Fold Change)” value is reported as 0.1985. In the case of B10, the “Fold Change” value is reported as 1.774 and the “Log (Fold Change)” value is reported as 0.2489. For B11, the “Fold Change” value was 1.628 and the “Log (Fold Change)” value was 0.2117. For B12, the “Fold Change” value was 1.749 and the “Log (Fold Change)” value was 0.2428. In the case of B13, the “Fold Change” value is reported as 1.651 and the “Log (Fold Change)” value is reported as 0.2178. With B14 the “Fold Change” value was 1.604 and the “Log (Fold Change)” value was 0.2053. In the case of B15, the “Fold Change” value is reported as 1.702 and the “Log (Fold Change)” value is reported as 0.231. For B16, the “Fold Change” value was 1.764 and the “Log (Fold Change)” value was 0.2466.
